Values belong to the substance of their own block, whether it stands above or below them.
Columns and labels:
[1] = biological target: IntC:dCas9C:VPR split at residue 713 (dCas9 from residue 714) (Streptococcus pyogenes) (UniProt Q99ZW2)
[2] = biological target: IntC:dCas9C-VRER:VPR split at residue 713 (two-output sensory switch, FIG. 27) (Streptococcus pyogenes) (UniProt Q99ZW2)
[3] = biological target: dCas9M:IntN containing the residues from 714 to 1153 (Streptococcus pyogenes) (UniProt Q99ZW2)
[4] = biological target: IntC:dCas9C:Suntag containing the residues from 1154 to 1368 (Streptococcus pyogenes) (UniProt Q99ZW2)
[5] = biological target: C-terminal dCas9 constituent split at residue 1153 fused to Suntag (Streptococcus pyogenes) (UniProt Q99ZW2)

Substance: dCas9N:IntN split at residue 713 (from UniProt Q99ZW2)
EYFP expression, two-input two-output sensory switch set by shRNA-FF5 and shRNA-FF4 [1]: 20 fold | mKate2 expression, two-input two-output sensory switch set by shRNA-FF5 and shRNA-FF4 [2]: 20 fold

Substance: dCas9N containing dCas9 residues from 1 to 713, without intein fusion (from UniProt Q99ZW2)
TagBFP expression, three-input logic AND circuit of three split-dCas9 fragments, HEK293 cells [3]: 110 fold

Substance: dCas9M:IntN containing the residues from 714 to 1153 (from UniProt Q99ZW2)
TagBFP expression, three-input logic AND circuit of three split-dCas9 fragments, HEK293 cells [4]: 110 fold

TagBFP expression, three-input logic AND circuit (two split-dCas9 constituents and rapalog), HEK293 cells [5]: 140 fold
Substance: N-terminal dCas9 constituent split at residue 1153 (intein fusion not stated at the place of the experiment) (from UniProt Q99ZW2)

From patent US20170233703A1
